We go through two proteins from patent US20080300206.

Data set [1] concerns the target alpha synuclein familial mutant A30P.
The target in data set [2] is recombinant wild-type human alpha-synuclein.
The target in data set [3] is alpha synuclein familial mutant A53T.
In data set [4] the target is alpha synuclein familial mutant E46K.

Chain of beta synuclein, Q16143 (Q16143 whole entry): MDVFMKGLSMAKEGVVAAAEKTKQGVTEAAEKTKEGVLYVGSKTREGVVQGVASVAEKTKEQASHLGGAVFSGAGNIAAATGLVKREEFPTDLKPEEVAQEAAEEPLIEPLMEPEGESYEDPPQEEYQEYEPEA

B1: Polo like kinase 2 (PLK2) (protein)
chain: MELLRTITYQPAASTKMCEQALGKGCGADSKKKRPPQPPEESQPPQSQAQVPPAAPHHHHHHSHSGPEISRIIVDPTTGKRYCRGKVLGKGGFAKCYEMTDLTNNKVYAAKIIPHSRVAKPHQREKIDKEIELHRILHHKHVVQFYHYFEDKENIYILLEYCSRRSMAHILKARKVLTEPEVRYYLRQIVSGLKYLHEQEILHRDLKLGNFFINEAMELKVGDFGLAARLEPLEHRRRTICGTPNYLSPEVLNKQGHGCESDIWALGCVMYTMLLGRPPFETTNLKETYRCIREARYTMPSSLLAPAKHLIASMLSKNPEDRPSLDDIIRHDFFLQGFTPDRLSSSCCHTVPDFHLSSPAKNFFKKAAAALFGGKKDKARYIDTHNRVSKEDEDIYKLRHDLKKTSITQQPSKHRTDEELQPPTTTVARSGTPAVENKQQIGDAIRMIVRGTLGSCSSSSECLEDSTMGSVADTVARVLRGCLENMPEADCIPKEQLSTSFQWVTKWVDYSNKYGFGYQLSDHTVGVLFNNGAHMSLLPDKKTVHYYAELGQCSVFPATDAPEQFISQVTVLKYFSHYMEENLMDGGDLPSVTDIRRPRLYLLQWLKSDKALMMLFNDGTFQVNFYHDHTKIIICSQNEEYLLTYINEDRISTTFRLTTLLMSGCSSELKNRMEYALNMLLQRCN
Turning to B1, in data set [1], the “PLK2 activity in vitro, autoradiography” value was “the mutant alpha-synucleins were phosphorylated more at a given concentration (especially at lower concentrations) than WT”. Moreover, in data set [2], the Fold Change in Percent Synuclein Phosphorylation, HEK-293 overexpression was found to be 21.2 fold; the “PLK2 activity in vitro, autoradiography” value is given as “PLK2 was found to be more active against wild-type alpha synuclein than beta synuclein”; the “Proportion of total synuclein that is phoshorylated at ser-129, HEK-293 overexpression, ELISA” value worked out at 42.3%; the “S129 phosphorylation, immunoblot (11A5), kinase:AS 1:200 molar” value is “Prominent signals came from GRK6, CKI, CKII and PLK2”. In data set [2], the “S129 phosphorylation, immunoblot (11A5), rank of signal” value was “CKI>GRK6>PLK2>GRK4>GRK5>GRK2”; the “extent of S129 phosphorylation by mass spectrometry after co-expression in bacteria” value is “more than 95% phosphorylated”; the “in vitro biochemical assay, phosphorylation of synuclein” value was “PLK2 and PLK3 having extremely robust phosphorylation of synuclein”; the “in vitro kinase reaction, phosphorylation of alpha-synuclein at serine 129” value is “capable of phosphorylating alpha-synuclein specifically at serine 129 and did not phosphorylate serine 87 in vitro”. In addition, the “phospho ser-129 level in vitro, normalised for molarity” value in data set [2] was “roughly equivalent levels of phospho ser-129 between CKI, GRK6 and PLK2”. The “PLK2 activity in vitro, autoradiography” value in data set [3] was “the mutant alpha-synucleins were phosphorylated more at a given concentration (especially at lower concentrations) than WT”. Also, the “PLK2 activity in vitro, autoradiography” value in data set [4] is recorded as “the mutant alpha-synucleins were phosphorylated more at a given concentration (especially at lower concentrations) than WT”. Besides, the “PLK2 activity in vitro, autoradiography” value with beta synuclein, Q16143 was “minimally against beta synuclein”.

B2: IKBKB (protein)
chain: MSWSPSLTTQTCGAWEMKERLGTGGFGNVIRWHNQETGEQIAIKQCRQELSPRNRERWCLEIQIMRRLTHPNVVAARDVPEGMQNLAPNDLPLLAMEYCQGGDLRKYLNQFENCCGLREGAILTLLSDIASALRYLHENRIIHRDLKPENIVLQQGEQRLIHKIIDLGYAKELDQGSLCTSFVGTLQYLAPELLEQQKYTVTVDYWSFGTLAFECITGFRPFLPNWQPVQWHSKVRQKSEVDIVVSEDLNGTVKFSSSLPYPNNLNSVLAERLEKWLQLMLMWHPRQRGTDPTYGPNGCFKALDDILNLKLVHILNMVTGTIHTYPVTEDESLQSLKARIQQDTGIPEEDQELLQEAGLALIPDKPATQCISDGKLNEGHTLDMDLVFLFDNSKITYETQISPRPQPESVSCILQEPKRNLAFFQLRKVWGQVWHSIQTLKEDCNRLQQGQRAAMMNLLRNNSCLSKMKNSMASMSQQLKAKLDFFKTSIQIDLEKYSEQTEFGITSDKLLLAWREMEQAVELCGRENEVKLLVERMMALQTDIVDLQRSPMGRKQGGTLDDLEEQARELYRRLREKPRDQRTEGDSQEMVRLLLQAIQSFEKKVRVIYTQLSKTVVCKQKALELLPKVEEVVSLMNEDEKTVVRLQEKRQKELWNLLKIACSKVRGPVSGSPDSMNASRLSQPGQLMSQPSTASNSLPEPAKKSEELVAEAHNLCTLLENAIQDTVREQDQSFTALDWSWLQTEEEEHSCLEQAS
As for B2, the “in vitro kinase reaction, phosphorylation of alpha-synuclein” value in data set [2] was “shown to be incapable of directly phosphorylating alpha-synuclein”.
